Measured values reported in article PMC5955432.

Target: Skp1-FBW7 complex (UniProt Q969H0)
Experiment: ITC; MicroCal VP-ITC, 30°C; cell: 15 μM purified Skp1-FBW7 complex in 50 mM phosphate buffer, pH 7.4; syringe: 321 μM FIRΔexon2; 10 μL injections, 20 s, 150 s delay

Sequence of UniProt Q969H0 (Q969H0 whole entry, chain 1 of 2): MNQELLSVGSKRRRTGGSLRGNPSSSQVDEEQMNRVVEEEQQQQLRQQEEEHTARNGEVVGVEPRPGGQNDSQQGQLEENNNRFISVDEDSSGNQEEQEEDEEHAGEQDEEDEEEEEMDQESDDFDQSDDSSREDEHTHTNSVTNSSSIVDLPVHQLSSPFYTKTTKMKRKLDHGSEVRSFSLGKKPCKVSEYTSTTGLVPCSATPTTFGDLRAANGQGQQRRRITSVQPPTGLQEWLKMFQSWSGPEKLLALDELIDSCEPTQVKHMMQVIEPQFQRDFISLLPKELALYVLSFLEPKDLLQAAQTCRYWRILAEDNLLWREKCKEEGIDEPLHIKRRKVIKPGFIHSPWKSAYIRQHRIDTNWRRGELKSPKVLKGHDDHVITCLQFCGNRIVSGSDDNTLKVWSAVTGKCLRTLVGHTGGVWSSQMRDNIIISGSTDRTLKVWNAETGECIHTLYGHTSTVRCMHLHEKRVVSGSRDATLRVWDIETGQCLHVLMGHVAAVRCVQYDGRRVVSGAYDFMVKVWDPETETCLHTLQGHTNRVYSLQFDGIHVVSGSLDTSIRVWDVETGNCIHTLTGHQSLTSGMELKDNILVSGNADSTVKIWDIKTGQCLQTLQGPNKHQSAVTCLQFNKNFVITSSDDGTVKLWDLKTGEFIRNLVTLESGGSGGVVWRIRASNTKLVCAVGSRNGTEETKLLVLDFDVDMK
Sequence of UniProt Q969H0 (P63208 whole entry, chain 2 of 2, further chain): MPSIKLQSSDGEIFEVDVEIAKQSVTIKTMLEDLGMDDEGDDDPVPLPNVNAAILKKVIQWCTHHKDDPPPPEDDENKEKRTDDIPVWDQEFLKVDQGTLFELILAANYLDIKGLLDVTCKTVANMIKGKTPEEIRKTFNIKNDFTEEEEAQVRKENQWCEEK

FIRΔexon2 (alternative splicing variant of far upstream element binding protein 1 (FUBP1) interacting repressor, FIR / PUF60, lacking exon 2) (natural protein)
Ka: > 1e+08 M⁻¹
